# Measurements from patent US7238668B1, “Inhibition of lymphocyte adherence with CS-1-peptides and fragments thereof” (Fred Hutchinson Cancer Research Center, priority 1989, dated 2007).
# Like-named read-outs stand apart in the source and are kept apart here. Ends that are not written are not given here.
# B1: GPEILDVPST peptide (peptide)
# peptide: GPEILDVPST
# notes: also called peptide 354
# B2: B12 peptide (peptide)
# peptide: LHGPEILDVPST
# notes: also called CS-1-B12
# B3: VPST peptide (peptide)
# peptide: VPST
# B4: CS-1 peptide (peptide)
# peptide: DELPQLVTLPHPNLHGPEILDVPST
# notes: Free peptide; also called peptide 344; synthetic CS-1
# B5: EILDV peptide (peptide)
# peptide: EILDV
# B6: RGDS peptide (peptide)
# peptide: RGDS
# How the values were obtained:
# [1] = system: T lymphocytes (Jurkat or Molt 4 cells); test: T lymphocyte adhesion to plasma fibronectin, tryptic fragments and CS peptides; format: cell-based, human
# Experimental: Antibodies that would alter cell adhesion to purified plasma fibronectin, tryptic fragments and CS peptides were identified as previously described (Wayner and Carter, 1987). […] The plates were blocked with PBS supplemented with 10 mg/ml heat denatured BSA (HBSA). T lymphocyte or HT1080 cells were labeled with Na2 ^51CrO4 (50 μlCi/ml for 2–4 hr), washed, and 5×10^4 HT1080 or cultured T cells or […] were incubated with hybridoma culture supernatants (1:2 dilution in PBS supplemented with 1 mg/ml heat denatured BSA) or control myeloma cell culture supernatant for 15 minutes at room temperature. The cells were allowed to adhere to the protein-coated surfaces in the presence of the hybridoma supernatants for 15–30 minutes (HT1080) or 2–4 hours (lymphocytes) at 37° C. Non-adherent cells were removed by washing with PBS, and the adherent cells were dissolved in SDS/NaOH and bound ^51Cr-cpm were quantitated in a gamma counter.
# Human plasma fibronectin was a generous gift from Drs. Horowitz and R. Schulman (New York Blood Center, N.Y.). […] Two overlapping peptides spanning the initial 48 residues of the IIICS region of human fibronectin (CS-1 and CS-2) were synthesized and coupled to rabbit IgG as described (Humphries et al., 1986, and Humphries et al., 1987, J. Biol. Chem. 262:6886–6892).
# [2] = target: integrin β1 subunit (human) (UniProt P05556); test: cell-based or functional assay
# integrin β1 subunit (human), sequence (P05556 21-798): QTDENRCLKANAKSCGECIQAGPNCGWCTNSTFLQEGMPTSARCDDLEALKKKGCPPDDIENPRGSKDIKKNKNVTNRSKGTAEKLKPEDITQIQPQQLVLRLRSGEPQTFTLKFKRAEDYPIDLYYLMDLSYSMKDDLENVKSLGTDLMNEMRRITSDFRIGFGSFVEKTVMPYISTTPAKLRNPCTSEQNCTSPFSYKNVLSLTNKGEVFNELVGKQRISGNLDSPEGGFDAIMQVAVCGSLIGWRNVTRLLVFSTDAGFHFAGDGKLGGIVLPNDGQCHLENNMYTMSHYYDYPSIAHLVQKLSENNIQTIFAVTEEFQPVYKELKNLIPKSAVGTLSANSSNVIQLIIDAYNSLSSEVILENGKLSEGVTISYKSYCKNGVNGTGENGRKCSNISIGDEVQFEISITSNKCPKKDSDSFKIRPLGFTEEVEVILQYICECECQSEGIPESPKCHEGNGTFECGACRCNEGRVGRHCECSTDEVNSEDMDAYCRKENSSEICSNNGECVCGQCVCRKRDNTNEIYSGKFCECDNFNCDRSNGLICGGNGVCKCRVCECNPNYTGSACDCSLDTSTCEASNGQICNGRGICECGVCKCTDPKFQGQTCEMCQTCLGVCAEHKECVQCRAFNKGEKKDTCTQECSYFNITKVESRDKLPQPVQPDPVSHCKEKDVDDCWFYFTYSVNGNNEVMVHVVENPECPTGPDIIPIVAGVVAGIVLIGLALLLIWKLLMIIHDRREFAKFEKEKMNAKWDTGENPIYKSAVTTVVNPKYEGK
# [3] = system: Jurkat (T) lymphocyte adhesion to HUVE monolayers; test: Endothelial cell adhesion assay, Jurkat cells on HUVE monolayers; format: cell-based, human; details: for Adhesion (cpm) Basal: basal HUVE
# Experimental: (§1) HUVEs were incubated with IL-1 β (1 ng/ml) or in some experiments with TNF α (10 ng/ml) for 6–24 hours. At the end of this incubation the HUVE monolayers were washed and used in the adhesion assay.
# (§2) Human umbilical vein endothelial cells (HUVEs) were cultured in 48 well plates as described (supra). To measure adherence of lymphocytes to HUVE monolayer cultures, lymphocytes were labeled with Na2 ^51CrO4 (50 μCi/ml) for 2–4 hours), washed, and then 10^5 lymphocytes were incubated with HUVE monolayers in the presence or absence of inhibitory antibodies or CS-1 derived peptides. The lymphocytes were allowed to adhere for 30 minutes at 37°. Non-adherent cells were subsequently removed by washing with PBS, and the adherent cells were dissolved in SDS/NaOH. Bound ^51Cr-cpm were quantitated in a gamma counter. In some experiments, endothelial cells were activated prior to the adhesion assay by incubating with IL-1 β (1 ng/ml) or […] (10 ng/ml) for 6–24 hours in defined CS-100 media (Cell Systems, Seattle, Wash.).
# [4] = system: LAD (B) lymphocyte adhesion to HUVE monolayers; test: Endothelial cell adhesion assay, LAD cells on HUVE monolayers; format: cell-based, human; details: for Adhesion (cpm) Basal: basal HUVE
# Experimental: as §1, §2
# [5] = system: Ramos (B) lymphocyte adhesion to HUVE monolayers; test: Endothelial cell adhesion assay, Ramos cells on HUVE monolayers; format: cell-based, human; details: for Adhesion (cpm) Basal: basal HUVE
# Experimental: as §1, §2
# Jurkat cells [6] = test: Jurkat cell adhesion to surfaces coated with peptide-rsa conjugates; format: cell-based, human
# Experimental: ^51Cr-labeled Jurkat cells ([…]) were incubated on surfaces coated with varying concentrations of peptide-rsa conjugates starting at 50 ug/ml (w/v) fragment or peptide (based on peptide not peptide-conjugate weight). […] (No adhesion=no measurable adhesion above negative controls.)
# Adhesion of various hematopoetic cell lines to CS-1 (open bars; FIG. 12) or LDV minimal peptide-coated surfaces (cross-hatched bars; FIG. 12) was tested as follows: Jurkat (T lymphoblastoid), A375 (melanoma), U937 (monocytic), Ramos (B lymphoblastoid), and ST-1 (EBV transformed B lymphoblastoid) cells were allowed to adhere to CS-1-rsa or LDVPST-rsa (5 ug/ml peptide) coated surfaces for 30 min at 37° C. At the end of this time the non-adherent cells were washed off and the adherent cells were solubilized in NaOH/SDS and quantitated in a gamma counter. The results are expressed as bound counts per minute.
# Jurkat cells [7] = test: Peptide inhibition of Jurkat cell adhesion to plasma fibronectin (50% inhibition point); format: cell-based, human; details: read-out: Molar Concentration (mM) required for 50% inhibition of Jurkat cell adhesion to plasma fibronectin; fibronectin 5 ug/ml; 30 min
# Experimental: For peptide inhibition studies, ^51Cr-labeled test cells were pre-incubated with CS-1 derived peptides at various concentrations for 15 min at room temperature. The test cells were then allowed to attach to fibronectin-coated surfaces in the presence of exogenous test peptides for 30–60 min. The assay then proceeded as described above.
# For these experiments in Table XIII ^51Cr-labeled Jurkat cells (10^5/well) were incubated in the presence of the varying concentrations (starting at 2 mg/ml) of the indicated peptides for 15 min. The Jurkat cells were then allowed to adhere to plasma fibronectin-coated surfaces (5 ug/ml) in the presence of the peptides for 30 min. Adhesion to fibronectin was graphically depicted as cpm bound to the fibronectin surface (Y axis), plotted as a function of molar peptide concentration (X axis).
# integrin receptor α4β1 [8] = target: T1, integrin receptor α4β1 (human, UniProt P13612 34-1032; P05556 21-798); test: cell-based or functional assay
# T1 sequence (P13612 34-1032, form in doubt, chain 1 of 2): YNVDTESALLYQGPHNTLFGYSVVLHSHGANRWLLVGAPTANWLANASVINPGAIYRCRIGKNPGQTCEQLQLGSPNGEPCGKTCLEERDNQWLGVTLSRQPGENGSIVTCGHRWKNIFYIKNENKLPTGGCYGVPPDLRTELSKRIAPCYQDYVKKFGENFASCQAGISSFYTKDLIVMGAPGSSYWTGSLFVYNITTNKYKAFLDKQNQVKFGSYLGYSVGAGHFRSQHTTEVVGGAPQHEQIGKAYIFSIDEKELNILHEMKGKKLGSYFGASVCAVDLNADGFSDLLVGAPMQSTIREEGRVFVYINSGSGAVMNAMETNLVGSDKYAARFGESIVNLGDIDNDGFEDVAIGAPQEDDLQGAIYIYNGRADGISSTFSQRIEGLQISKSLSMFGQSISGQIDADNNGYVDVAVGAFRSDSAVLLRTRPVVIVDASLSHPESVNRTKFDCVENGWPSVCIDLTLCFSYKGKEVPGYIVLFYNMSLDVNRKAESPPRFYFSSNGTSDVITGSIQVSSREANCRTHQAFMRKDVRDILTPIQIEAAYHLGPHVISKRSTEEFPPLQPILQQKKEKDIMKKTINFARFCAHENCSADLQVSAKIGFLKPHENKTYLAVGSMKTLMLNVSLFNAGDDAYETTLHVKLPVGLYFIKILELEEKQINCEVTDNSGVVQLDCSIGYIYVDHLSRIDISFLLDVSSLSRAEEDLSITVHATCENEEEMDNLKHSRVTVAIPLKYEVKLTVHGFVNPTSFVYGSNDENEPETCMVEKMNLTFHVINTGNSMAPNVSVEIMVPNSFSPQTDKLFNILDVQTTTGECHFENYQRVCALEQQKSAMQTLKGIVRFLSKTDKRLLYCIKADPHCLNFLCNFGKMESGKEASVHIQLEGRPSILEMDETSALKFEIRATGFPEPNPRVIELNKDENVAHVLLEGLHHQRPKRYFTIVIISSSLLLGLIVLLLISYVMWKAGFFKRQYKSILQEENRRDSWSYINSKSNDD
# T1 sequence (P05556 21-798, form in doubt, chain 2 of 2): as the sequence (P05556 21-798) above
# integrin receptor α4β1 [9] = target: T1, integrin receptor α4β1; test: cell-based or functional assay; remark: listed apart in the source
# integrin receptor α4β1 [10] = target: T1, integrin receptor α4β1; test: soluble peptide against 51Cr-Jurkat adhesion to plasma fibronectin (5 ug/ml coat); 50% inhibition point read from plot
# Experimental: For these experiments in Table XIII ^51Cr-labeled Jurkat cells (10^5/well) were incubated in the presence of the varying concentrations (starting at 2 mg/ml) of the indicated peptides for 15 min.
# integrin receptor α4β1 [11] = target: T1, integrin receptor α4β1; test: cell-based or functional assay; remark: listed apart in the source
# integrin α5β1 = integrin α5β1 (human, UniProt P08648 42-1049; P05556 21-798); test: cell-based or functional assay
# integrin α5β1, sequence (P08648 42-1049, chain 1 of 2): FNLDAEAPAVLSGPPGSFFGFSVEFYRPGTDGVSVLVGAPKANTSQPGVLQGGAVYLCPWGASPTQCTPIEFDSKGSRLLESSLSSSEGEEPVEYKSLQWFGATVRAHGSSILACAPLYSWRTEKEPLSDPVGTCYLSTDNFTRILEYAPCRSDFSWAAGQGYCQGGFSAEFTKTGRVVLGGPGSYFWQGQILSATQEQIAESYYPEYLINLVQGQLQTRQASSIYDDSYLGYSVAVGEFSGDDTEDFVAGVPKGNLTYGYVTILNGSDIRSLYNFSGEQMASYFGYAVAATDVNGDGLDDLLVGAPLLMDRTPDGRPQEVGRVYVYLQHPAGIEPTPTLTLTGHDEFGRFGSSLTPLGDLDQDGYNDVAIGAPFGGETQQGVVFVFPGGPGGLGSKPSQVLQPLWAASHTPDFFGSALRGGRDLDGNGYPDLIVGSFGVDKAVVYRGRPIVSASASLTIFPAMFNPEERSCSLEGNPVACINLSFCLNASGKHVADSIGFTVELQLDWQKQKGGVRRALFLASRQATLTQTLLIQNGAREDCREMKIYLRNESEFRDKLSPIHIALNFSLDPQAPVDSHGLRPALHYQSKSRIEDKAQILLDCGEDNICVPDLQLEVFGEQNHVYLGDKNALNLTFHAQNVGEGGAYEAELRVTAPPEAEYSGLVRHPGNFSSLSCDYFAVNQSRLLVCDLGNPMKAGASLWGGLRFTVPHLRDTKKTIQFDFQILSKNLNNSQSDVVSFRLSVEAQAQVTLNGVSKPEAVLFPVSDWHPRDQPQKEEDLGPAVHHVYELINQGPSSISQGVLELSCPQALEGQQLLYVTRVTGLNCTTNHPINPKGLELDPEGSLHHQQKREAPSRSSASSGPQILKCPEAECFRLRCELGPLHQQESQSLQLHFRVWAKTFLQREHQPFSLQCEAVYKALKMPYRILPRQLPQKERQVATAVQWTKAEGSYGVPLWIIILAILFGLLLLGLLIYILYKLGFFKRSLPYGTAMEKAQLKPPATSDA
# integrin α5β1, sequence (P05556 21-798, chain 2 of 2): as the sequence (P05556 21-798) above
molecule,measurement,setting,value
"CS-2 (rabbit IgG conjugate): CS-2 peptide of the IIICS region coupled to rabbit IgG (PSTVQKTPFVTHPGYDTGNGIQLPGT; also: coupled to rabbit IgG, site not given here)",T lymphocyte attachment to peptide (rabbit IgG conjugate)-coated plastic surfaces,[1],do not attach
monoclonal antibody P4C10,"Adhesion (cpm), Jurkat (T) on HUVE monolayers, +IL-1β; SP2 control 372159",[2],230000 cpm
same,"Adhesion (cpm), Jurkat (T) on HUVE monolayers, Basal; SP2 control 83924",[2],36900 cpm
same,"Adhesion (cpm), LAD (B) on HUVE monolayers, +IL-1β; SP2 control 104672",[2],52600 cpm
same,"Adhesion (cpm), LAD (B) on HUVE monolayers, Basal; SP2 control 19542",[2],6360 cpm
same,"Adhesion (cpm), Ramos (B) on HUVE monolayers, +IL-1β; SP2 control 12157",[2],3150 cpm
same,"Adhesion (cpm), Ramos (B) on HUVE monolayers, Basal; SP2 control 972",[2],604 cpm
monoclonal antibody 8A2,"concentration of 8A2 able to stimulate increased avidity of a low avidity α4β1 receptor complex for fibronectin, CS-1, or LDV minimal peptides",[2],0.1 µg/mL
"CS-1 (rabbit IgG conjugate): CS-1 peptide coupled to rabbit IgG (DELPQLVTLPHPNLHGPEILDVPST; also: coupled to rabbit IgG, site not given here)",T lymphocyte attachment to peptide (rabbit IgG conjugate)-coated plastic surfaces,[1],recognize and attach
"DELPQLVTLPHPNLHGPEILDVPST [Peptide 344, synthetic CS-1 peptide of the fibronectin IIICS region]",Adhesion (cpm) Basal,"[3]; peptides, Table X",29568 cpm
same,Adhesion (cpm) Basal,"[4]; peptides, Table X",17500 cpm
same,Adhesion (cpm) Basal,"[5]; peptides, Table X",1660 cpm
rsa-LDV: LDV conjugated to rabbit serum albumin (Leu-Asp-Val; also: conjugated to rabbit serum albumin),EC50,"Jurkat cells [6]; peptide-rsa conjugate coated surfaces, 50% of total input cpm, read-out: Molar Concentration (nM) required for 50% adhesion of Jurkat cells",> 2000 nM
VPST-rsa: VPST conjugated to rabbit serum albumin (also: conjugated to rabbit serum albumin),Induction of stable cell adhesion,"Jurkat cells [6]; FIGS. 13-15, Jurkat, U937 and HUT 78 cells",relatively inactive in inducing stable cell adhesion
"DELPQLVTLPHPN [Peptide A13, N-terminal peptide of CS-1]",IC50,Jurkat cells [7],> 1 mM
leu-asp-val (Leu-Asp-Val; not fully specified; printed as leu-asp-val) [LDV],IC50,Jurkat cells [7],> 2.7 mM
rsa-A13: A13 peptide conjugated to rabbit serum albumin (DELPQLVTLPHPN; also: conjugated to rabbit serum albumin),Molar Concentration (nM) required for 50% adhesion of Jurkat cells,"Jurkat cells [6]; peptide-rsa conjugate coated surfaces, 50% of total input cpm",No Adhesion
LDVPST [Peptide 351],Adhesion (cpm) +IL-1β,"[3]; IL-1β activated HUVE, Table XI, no peptide 314848",326260 cpm
same,Adhesion (cpm) Basal,"[3]; Table XI, no peptide 161092",166948 cpm
same,Adhesion (cpm) +IL-1β,"[4]; IL-1β activated HUVE, Table XI, no peptide 71408",92792 cpm
same,Adhesion (cpm) Basal,"[4]; Table XI, no peptide 44860",39700 cpm
same,Adhesion (cpm) +IL-1β,"[5]; IL-1β activated HUVE, Table XI, no peptide 12936",15092 cpm
same,Adhesion (cpm) Basal,"[5]; Table XI, no peptide 2724",3532 cpm
same,IC50,Jurkat cells [7],> 1.6 mM
LDVPST peptide,"Adhesion (cpm), Jurkat (T) on HUVE, +IL-1β; no peptide 314848",integrin receptor α4β1 [8],326000 cpm
same,"Adhesion (cpm), Jurkat (T) on HUVE, Basal; no peptide 161092",integrin receptor α4β1 [8],167000 cpm
same,"Adhesion (cpm), LAD (B) on HUVE, +IL-1β; no peptide 71408",integrin receptor α4β1 [8],92800 cpm
same,"Adhesion (cpm), LAD (B) on HUVE, Basal; no peptide 44860",integrin receptor α4β1 [8],39700 cpm
same,"Adhesion (cpm), Ramos (B) on HUVE, +IL-1β; no peptide 12936",integrin receptor α4β1 [8],15100 cpm
same,"Adhesion (cpm), Ramos (B) on HUVE, Basal; no peptide 2724",integrin receptor α4β1 [8],3530 cpm
B1,"Adhesion (cpm), Jurkat (T) on HUVE, +IL-1β; unrelated peptide 293(A) 129864",integrin receptor α4β1 [9],89700 cpm
same,"Adhesion (cpm), LAD (B) on HUVE, +IL-1β; unrelated peptide 293A 74096",integrin receptor α4β1 [9],27200 cpm
same,"Adhesion (cpm), Ramos (B) on HUVE, +IL-1β; unrelated peptide 293A 11132",integrin receptor α4β1 [9],2260 cpm
same,IC50,integrin receptor α4β1 [10],450 µM
B2,IC50,integrin receptor α4β1 [10],400 µM
B3,"Adhesion (cpm), Jurkat (T) on HUVE, +IL-1β; unrelated peptide 293(A) 129864",integrin receptor α4β1 [9],128000 cpm
same,"Adhesion (cpm), LAD (B) on HUVE, +IL-1β; unrelated peptide 293A 74096",integrin receptor α4β1 [9],42700 cpm
same,"Adhesion (cpm), Ramos (B) on HUVE, +IL-1β; unrelated peptide 293A 11132",integrin receptor α4β1 [9],4570 cpm
same,"Adhesion (cpm), Jurkat (T) on HUVE, +IL-1β; no peptide 314848",integrin receptor α4β1 [11],322000 cpm
same,"Adhesion (cpm), Jurkat (T) on HUVE, Basal; no peptide 161092",integrin receptor α4β1 [11],204000 cpm
same,"Adhesion (cpm), LAD (B) on HUVE, +IL-1β; no peptide 71408",integrin receptor α4β1 [11],98900 cpm
same,"Adhesion (cpm), LAD (B) on HUVE, Basal; no peptide 44860",integrin receptor α4β1 [11],38200 cpm
same,"Adhesion (cpm), Ramos (B) on HUVE, +IL-1β; no peptide 12936",integrin receptor α4β1 [11],15300 cpm
same,"Adhesion (cpm), Ramos (B) on HUVE, Basal; no peptide 2724",integrin receptor α4β1 [11],4170 cpm
B4,"Adhesion (cpm), Jurkat (T) on HUVE, +IL-1β; unrelated peptide 293(A) 129864",integrin receptor α4β1 [9],75800 cpm
same,"Adhesion (cpm), LAD (B) on HUVE, +IL-1β; unrelated peptide 293A 74096",integrin receptor α4β1 [9],26200 cpm
same,"Adhesion (cpm), Ramos (B) on HUVE, +IL-1β; unrelated peptide 293A 11132",integrin receptor α4β1 [9],2830 cpm
same,IC50,integrin receptor α4β1 [10],180 µM
same,"Adhesion (cpm), Jurkat (T) on HUVE, +IL-1β; no peptide 314848",integrin receptor α4β1 [11],249000 cpm
same,"Adhesion (cpm), Jurkat (T) on HUVE, Basal; no peptide 161092",integrin receptor α4β1 [11],82400 cpm
same,"Adhesion (cpm), LAD (B) on HUVE, +IL-1β; no peptide 71408",integrin receptor α4β1 [11],51600 cpm
same,"Adhesion (cpm), LAD (B) on HUVE, Basal; no peptide 44860",integrin receptor α4β1 [11],23000 cpm
same,"Adhesion (cpm), Ramos (B) on HUVE, +IL-1β; no peptide 12936",integrin receptor α4β1 [11],5160 cpm
same,"Adhesion (cpm), Ramos (B) on HUVE, Basal; no peptide 2724",integrin receptor α4β1 [11],1840 cpm
B5,IC50,integrin receptor α4β1 [10],660 µM
B6,"Adhesion (cpm), Jurkat (T) on HUVE, +IL-1β; no peptide 314848",integrin α5β1,358000 cpm
same,"Adhesion (cpm), Jurkat (T) on HUVE, Basal; no peptide 161092",integrin α5β1,299000 cpm
same,"Adhesion (cpm), LAD (B) on HUVE, +IL-1β; no peptide 71408",integrin α5β1,102000 cpm
same,"Adhesion (cpm), LAD (B) on HUVE, Basal; no peptide 44860",integrin α5β1,70700 cpm
same,"Adhesion (cpm), Ramos (B) on HUVE, +IL-1β; no peptide 12936",integrin α5β1,28100 cpm
same,"Adhesion (cpm), Ramos (B) on HUVE, Basal; no peptide 2724",integrin α5β1,16900 cpm
